These results are taken from US20210145976A1 (ARO BIOTHERAPEUTICS, published 2021).

Where a chain is given by its changes, count along the chain named.

Experiment [1] concerns the target T1, recombinant biotinylated CD71 extracellular domain (Sino Biologics) with an N-terminal 6His tag (human, UniProt P02786 89-760, biotinylated (sites not given)).
T1 construct: extracellular domain; also called hCD71; huCD71
Nature of the experiment: screening ELISA. (In general: ELISA stands for enzyme-linked immunosorbent assay.)

Experiment [2] concerns the target T1, recombinant biotinylated CD71 …. Nature of the experiment: screening ELISA, ratio.

T1 sequence (P02786 other isoform, or with tags, fused parts or gaps): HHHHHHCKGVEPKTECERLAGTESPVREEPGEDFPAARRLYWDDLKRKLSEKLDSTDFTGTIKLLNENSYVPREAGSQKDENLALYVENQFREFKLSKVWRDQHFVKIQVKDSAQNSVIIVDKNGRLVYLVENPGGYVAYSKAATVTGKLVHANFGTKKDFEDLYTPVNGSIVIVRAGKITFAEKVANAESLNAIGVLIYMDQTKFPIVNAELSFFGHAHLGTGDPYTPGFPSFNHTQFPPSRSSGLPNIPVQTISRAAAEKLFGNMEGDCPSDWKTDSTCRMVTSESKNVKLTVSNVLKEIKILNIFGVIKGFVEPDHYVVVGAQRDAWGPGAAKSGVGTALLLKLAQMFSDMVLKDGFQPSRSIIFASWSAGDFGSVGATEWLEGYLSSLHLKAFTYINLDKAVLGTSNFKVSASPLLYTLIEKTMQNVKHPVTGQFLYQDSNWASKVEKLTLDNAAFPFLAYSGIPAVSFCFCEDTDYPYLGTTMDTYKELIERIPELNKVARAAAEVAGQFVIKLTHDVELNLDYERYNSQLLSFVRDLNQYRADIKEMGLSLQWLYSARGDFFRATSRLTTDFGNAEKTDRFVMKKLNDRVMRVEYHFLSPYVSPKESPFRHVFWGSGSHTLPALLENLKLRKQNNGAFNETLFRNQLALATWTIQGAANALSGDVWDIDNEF

B1: SEQ ID NO 81 (designed binder)
chain: MLPAPKNLVVSRVTEDSARLSWTAPDAAFDSFVIEYREGAWYGEAIVLTVPGSERSYDLTGLKPGTEYAVYIPGVKGGPRSFPLSAIFTT
notes: FN3 domain
Consider B1, for which the hCD71 in experiment [1] worked out at 537000. The “hCD71:HSA” value in experiment [2] came to 19.

B2: SEQ ID NO 87 (designed binder)
chain: MLPAPKNLVVSRVTEDSARLSWTAPDAAFDSFAIEYYEPVPAGEAIYLDVPGSERSYDLTGLKPGTEYDVTIYGVKGGYYSHPLFASFTT
notes: FN3 domain
On to B2, for which the hCD71 in experiment [1] was found to be 2.83e+06. In addition, the “hCD71:HSA” value in experiment [2] is 2580.

B3: SEQ ID NO 84 (designed binder)
chain: MLPAPKNLVVSRVTEDSARLSWTAPDAAFDSFPIYYWEVFPAGEAIELDVPGSERSYDLTGLKPGTEYFVRIEGVKGGASSYPLRAEFTT
notes: FN3 domain
For B3, the hCD71 in experiment [1] amounted to 1.73e+06. Also, the “hCD71:HSA” value in experiment [2] was 449.

B4: SEQ ID NO 89 (designed binder)
chain: MLPAPKNLVVSRVTEDSARLSWTAPDAAFDSFHISYEETPVVGEAIYLRVPGSERSYDLTGLKPGTEYTVAIHGVKGGRESTPLIAPFTT
notes: FN3 domain
As to B4, in experiment [1], the hCD71 was 3.44e+06. The “hCD71:HSA” value in experiment [2] was 1720.

B5: SEQ ID NO 265 (designed binder)
chain: MLPAPKNLVVSRVTEDSARLSWTAPDAAFDSFWIYYIETSHQGEAIVLTVPGSERSYDLTGLKPGTEYFVLIKGVKGGYDSVPLSAIFTT
notes: FN3 domain
As for B5, the hCD71 in experiment [1] is 3.61e+06. Further, the “hCD71:HSA” value in experiment [2] is 913.

B6: SEQ ID NO 267 (designed binder)
chain: MLPAPKNLVVSRVTEDSARLSWTAPDAAFDSFPIVYSEIHVIGEAIVLTVPGSERSYDLTGLKPGTEYDVWIEGVKGGHLSEPLSAIFTT
notes: FN3 domain
Take B6: the hCD71 in experiment [1] was found to be 1.97e+06. The “hCD71:HSA” value in experiment [2] amounted to 166.

B7: SEQ ID NO 295 (designed binder)
chain: MLPAPKNLVVSRVTEDSARLSWTAPDAAFDSFFIGYLEPIPSGEAIVLTVPGSERSYDLTGLKPGTEYPVVIQGVKGGHPSQPLSAIFTT
notes: FN3 domain
Regarding B7, in experiment [1], the hCD71 came to 3.38e+06. Also, in experiment [2], the “hCD71:HSA” value was determined as 891.

B8: SEQ ID NO 268 (designed binder)
chain: B6 chain with P33T, S37G, I39A, H40G, V41A, I42F, W71L, H79N, E82W
notes: FN3 domain
For the molecule B8, the hCD71 in experiment [1] came out at 1.6e+06. In experiment [2], the “hCD71:HSA” value was 626.

B9: SEQ ID NO 271 (designed binder)
chain: MLPAPKNLVVSRVTEDSARLSWTAPDAAFDSFYIPYAETRDDGEAIVLTVPGSERSYDLTGLKPGTEYSVLIHGVKGGDLSSPLSAIFTT
notes: FN3 domain
Regarding B9, the hCD71 in experiment [1] amounted to 2.11e+06. Further, the “hCD71:HSA” value in experiment [2] came out at 693.

B10: SEQ ID NO 293 (designed binder)
chain: MLPAPKNLVVSRVTEDSARLSWTAPDAAFDSFTIEYWEFTGSGEAIVLTVPGSERSYDLTGLKPGTEYDVSIYGVKGGWLSYPLSAIFTT
notes: FN3 domain
With B10, in experiment [1], the hCD71 amounted to 3.59e+06. Further, the “hCD71:HSA” value in experiment [2] was determined as 520.

B11: SEQ ID NO 276 (designed binder)
chain: MLPAPKNLVVSRVTEDSARLSWTAPDAAFDSFRIDYLELTSLGEAIVLTVPGSERSYDLTGLKPGTEYPVPILGVKGGLSSWPLSAIFTT
notes: FN3 domain
For B11, in experiment [1], the hCD71 turned out to be 720000. For the same molecule, the “hCD71:HSA” value in experiment [2] is 58.

B12: SEQ ID NO 282 (designed binder)
chain: B7 chain with F33A, G35V, L37H, I40R, S42D, P69E, Q73L, H79V, P80H, Q82Y
notes: FN3 domain
In the case of B12, in experiment [1], the hCD71 was found to be 3.85e+06. In experiment [2], the “hCD71:HSA” value is 206.

B13: SEQ ID NO 306 (designed binder)
chain: B10 chain with T33Y, W37F, F39T, T40Q, S42Y, D69Y, S71A, W79Y, Y82R
notes: FN3 domain
With B13, the hCD71 in experiment [1] amounted to 4.07e+06. Further, the “hCD71:HSA” value in experiment [2] came out at 1810.

B14: SEQ ID NO 304 (designed binder)
chain: B10 chain with T33I, E35T, F39H, T40V, S42D, D69F, S71E, W79Y, Y82K
notes: FN3 domain
For B14, the hCD71 in experiment [1] was 3.34e+06. The “hCD71:HSA” value in experiment [2] was 1240.

B15: SEQ ID NO 272 (designed binder)
chain: B9 chain with Y33G, T39S, R40T, D41P, D42T, D79H, S82D
notes: FN3 domain
In the case of B15, in experiment [1], the hCD71 is 1.78e+06. Besides, in experiment [2], the “hCD71:HSA” value is 199.

B16: SEQ ID NO 283 (designed binder)
chain: B9 chain with Y33P, P35A, T39P, D41P, D79L
notes: FN3 domain
Turning to B16, the hCD71 in experiment [1] is 2.95e+06. The “hCD71:HSA” value in experiment [2] was 472.

B17: SEQ ID NO 279 (designed binder)
chain: B10 chain with T33S, W37Y, F39S, T40V, S42L, W79Y, Y82R
notes: FN3 domain
Regarding B17, the hCD71 in experiment [1] stood at 4.09e+06. In addition, the “hCD71:HSA” value in experiment [2] was found to be 1300.

B18: SEQ ID NO 288 (designed binder)
chain: B9 chain with Y33L, R40S, D41P, D42S, L80Y, F88S
notes: FN3 domain
On to B18, for which the hCD71 in experiment [1] stood at 659000. In addition, the “hCD71:HSA” value in experiment [2] is 16.

B19: SEQ ID NO 287 (designed binder)
chain: MLPAPKNLVVSRVTEDSARLSWTAPDAAFDSFTIEYHESGPVGEAIVLTVPGSERSYDLTGLKPGTEYMVWIFGVKGGFVSRPLSAIFTT
notes: FN3 domain
For B19, the hCD71 in experiment [1] was determined as 3.88e+06. In experiment [2], the “hCD71:HSA” value came to 706.

B20: SEQ ID NO 298 (designed binder)
chain: B9 chain with Y33P, P35A, T39P, D41P, D79L, F88S
notes: FN3 domain
As to B20, the hCD71 in experiment [1] turned out to be 2.51e+06. The “hCD71:HSA” value in experiment [2] was 74.

B21: SEQ ID NO 305 (designed binder)
chain: MLPAPKNLVVSRVTEDSARLSWTAPDAAFDSFEIDYDEPFVYGEAIVLTVPGSERSYDLTGLKPGTEYRVFIFGVKGGNGSWPLSAIFTT
notes: FN3 domain
Turning to B21, the hCD71 in experiment [1] was determined as 1.21e+06. For the same molecule, the “hCD71:HSA” value in experiment [2] is 48.

B22: SEQ ID NO 300 (designed binder)
chain: B7 chain with I40Q, S42P, P69N, V71T, Q73H, H79T, Q82M
notes: FN3 domain
As for B22, in experiment [1], the hCD71 worked out at 2.31e+06. The “hCD71:HSA” value in experiment [2] worked out at 571.

B23: SEQ ID NO 285 (designed binder)
chain: B9 chain with Y33L, R40S, D41P, D42S, L80Y
notes: FN3 domain
With B23, the hCD71 in experiment [1] was 2.44e+06. Moreover, the “hCD71:HSA” value in experiment [2] is 1110.

B24: SEQ ID NO 275 (designed binder)
chain: B9 chain with Y33L, P35A, T39V, R40T, D41L, D42H, D79R, L80N, S82D
notes: FN3 domain
In the case of B24, in experiment [1], the hCD71 is 2.25e+06. Further, the “hCD71:HSA” value in experiment [2] was 591.

B25: SEQ ID NO 289 (designed binder)
chain: MLPAPKNLVVSRVTEDSARLSWTAPDAAFDSFAIPYYEDTNDGEAIVLTVPGSERSYDLTGLKPGTEYWVSIQGVKGGTVSGPLSAIFTT
notes: FN3 domain
In the case of B25, the hCD71 in experiment [1] was 2.27e+06. Also, the “hCD71:HSA” value in experiment [2] worked out at 1060.
